# Data published in publication PMC7769916 (Cellular and molecular life sciences : CMLS, 2020).
# Experiments:
# [1] = molecular target: Plexin-B1 ICD E1530R.E1533R (human) (UniProt O43157)
# [2] = molecular target: Plexin-B1 ICD R1900E.R1904E (human) (UniProt O43157)
# [3] = molecular target: Plexin-B1 ICD FL [res. 1511-2135] (human, UniProt O43157 1511-2135); experiment: MST
# [4] = molecular target: Plexin-B1 ICD E1530R.E1533R (human, UniProt O43157 1511-2135, E1530R | E1533R); experiment: MST
# [5] = molecular target: Plexin-B1 ICD R1900E.R1904E (human, UniProt O43157 1511-2135, R1900E | R1904E); experiment: MST
# Plexin-B1 ICD R1900E.R1904E, sequence (O43157 1511-2135 R1900E/R1904E): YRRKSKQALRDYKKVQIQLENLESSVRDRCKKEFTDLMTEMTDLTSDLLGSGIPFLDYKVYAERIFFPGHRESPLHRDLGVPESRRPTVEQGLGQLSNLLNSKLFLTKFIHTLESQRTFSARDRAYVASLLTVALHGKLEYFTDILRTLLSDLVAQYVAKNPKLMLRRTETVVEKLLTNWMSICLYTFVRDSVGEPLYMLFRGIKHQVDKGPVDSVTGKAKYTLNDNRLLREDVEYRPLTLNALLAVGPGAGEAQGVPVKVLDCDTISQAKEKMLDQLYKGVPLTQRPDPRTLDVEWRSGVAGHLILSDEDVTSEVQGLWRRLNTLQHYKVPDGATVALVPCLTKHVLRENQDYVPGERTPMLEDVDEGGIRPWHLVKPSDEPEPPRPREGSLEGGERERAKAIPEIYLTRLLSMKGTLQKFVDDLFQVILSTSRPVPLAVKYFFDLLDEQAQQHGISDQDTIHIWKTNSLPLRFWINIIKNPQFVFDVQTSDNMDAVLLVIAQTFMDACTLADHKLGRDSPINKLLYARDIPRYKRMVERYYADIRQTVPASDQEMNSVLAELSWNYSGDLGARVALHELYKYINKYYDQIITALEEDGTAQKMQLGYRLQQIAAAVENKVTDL
# Human Rap1b wild type [res. 1 to 184], sequence (P61224 whole entry): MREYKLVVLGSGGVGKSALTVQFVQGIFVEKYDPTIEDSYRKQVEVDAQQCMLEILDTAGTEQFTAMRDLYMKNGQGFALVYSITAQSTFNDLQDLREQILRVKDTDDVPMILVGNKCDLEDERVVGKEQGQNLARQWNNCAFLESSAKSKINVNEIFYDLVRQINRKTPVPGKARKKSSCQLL
# Plexin-B1 ICD E1530R.E1533R, sequence (O43157 1511-2135 E1530R/E1533R): as the sequence (O43157 1511-2135 R1900E/R1904E) above, with E20R, E23R, E390R, E394R counted along it
# Plexin-B1 ICD E1530R.E1533R (human), sequence (O43157 1511-2135 E1530R/E1533R): as the sequence (O43157 1511-2135 R1900E/R1904E) above, with E20R, E23R, E390R, E394R counted along it
# Plexin-B1 ICD R1900E.R1904E (human), sequence (O43157 1511-2135 R1900E/R1904E): as the sequence (O43157 1511-2135 R1900E/R1904E) above
# Plexin-B1 ICD FL [res. 1511-2135], sequence (O43157 1511-2135): as the sequence (O43157 1511-2135 R1900E/R1904E) above, with E390R, E394R counted along it
loss of GAP activity towards Rap1b against wild type Plexin-B1 ICR [1] [%],loss of GAP activity towards Rap1b against wild type Plexin-B1 ICR [2] [%],binding result [3],Kd [4] [µM],Kd [5] [µM],Molecule
> 50,> 50,–,–,–,Human Rap1b wild type [res. 1 to 184] (from UniProt P61224 1-184) (enzyme)
–,–,binds,> 100,> 100,"Rap1b G12V (constitutive active mutant) [res. 1 to 184] (enzyme, human, UniProt P61224 1-184, looked up) MREYKLVVLGSVGVGKSALTVQFVQGIFVEKYDPTIEDSYRKQVEVDAQQCMLEILDTAGTEQFTAMRDLYMKNGQGFALVYSITAQSTFNDLQDLREQILRVKDTDDVPMILVGNKCDLEDERVVGKEQGQNLARQWNNCAFLESSAKSKINVNEIFYDLVRQINRKTPVPGKARKKSSCQLL"
